# Columns and labels:
# [1] = molecular target: Elongation factor 2 (EF-2) with glycine to arginine mutation at codon 705, in DPL cells (derived from PER.C6) (human) (UniProt P13639); experiment: cell-based or functional assay
# [2] = molecular target: Elongation factor 2 (EF-2), wild type, endogenous in PER.C6 and 293 cells (human) (UniProt P13639); experiment: cell-based or functional assay
substance,measurement,setting,value
Diphtheria toxin (DT) (from UniProt P00588 33-567) (enzyme),cell growth in the presence of DT (DPLR1 cells),[1],100 pM
same,cell survival in the presence of DT (DPLR3 cells),[1],10 nM
same,resistance of cells to DT (DPL cells),[1],1 nM
same,cell death in the presence of DT (293 wt cells),[2],100 pM
same,cell death in the presence of DT (PER.C6 cells),[2],100 pM
same,cell death within 24 hrs in the presence of DT (PER.C6 and 293 cells),[2],10 pM
